Data reported in FireProtDB (doi:10.1016/s0014-5793(98)01666-4).
Several values for one entry are separate records, joined by “and”; a condition that tells them apart may be missing. Equal entries are not always repeated.

Conditions: Rattus norvegicus, pH 7.4, Thermal, DSC, EDTA 10 mM, NaCl 0.20 M, transition: 2, reversible: yes, whole UniProt chain shown

B1: Parvalbumin alpha wild type, P02625 (protein)
chain: MSMTDLLSAEDIKKAIGAFTAADSFDHKKFFQMVGLKKKSADDVKKVFHILDKDKSGFIEEDELGSILKGFSSDARDLSAKETKTLMAAGDKDGDGKIGVEEFSTLVAES
25 °C
  unfolding enthalpy (calorimetric): 70 kcal/mol and 75 kcal/mol
  unfolding enthalpy (van 't Hoff): 71 kcal/mol and 74 kcal/mol
  unfolding free energy: 3.5 kcal/mol and 4.7 kcal/mol
  Tm: 53.6 °C
  unfolding enthalpy (calorimetric): 75 kcal/mol
  unfolding enthalpy (van 't Hoff): 74 kcal/mol
